Here are results for eight compounds from US6465220B1, “Glycosylation using GalNac-T4 transferase” (GlycoZym ApS, priority 1998, dated 2002).

Like-named read-outs stand apart in the source and are kept apart here. Ends that are not written are not given here.

In general, Km refers to the substrate concentration at which the rate is half of its maximum.

The target of assay [1] is T1, GalNAc-T3 (Homo sapiens, UniProt Q14435).
T1 construct: Control constructs pAcGP67-GalNAc-T1-sol, pAcGP67-GalNAc-T2-sol, pAcGP67-GalNAc-T3-sol, and pAcGP67-O^2-sol were prepared as previously described; made in house; host or cells: insect cells (baculovirus, pAcGP67)
T1 sequence (Q14435 38-633 limits assumed): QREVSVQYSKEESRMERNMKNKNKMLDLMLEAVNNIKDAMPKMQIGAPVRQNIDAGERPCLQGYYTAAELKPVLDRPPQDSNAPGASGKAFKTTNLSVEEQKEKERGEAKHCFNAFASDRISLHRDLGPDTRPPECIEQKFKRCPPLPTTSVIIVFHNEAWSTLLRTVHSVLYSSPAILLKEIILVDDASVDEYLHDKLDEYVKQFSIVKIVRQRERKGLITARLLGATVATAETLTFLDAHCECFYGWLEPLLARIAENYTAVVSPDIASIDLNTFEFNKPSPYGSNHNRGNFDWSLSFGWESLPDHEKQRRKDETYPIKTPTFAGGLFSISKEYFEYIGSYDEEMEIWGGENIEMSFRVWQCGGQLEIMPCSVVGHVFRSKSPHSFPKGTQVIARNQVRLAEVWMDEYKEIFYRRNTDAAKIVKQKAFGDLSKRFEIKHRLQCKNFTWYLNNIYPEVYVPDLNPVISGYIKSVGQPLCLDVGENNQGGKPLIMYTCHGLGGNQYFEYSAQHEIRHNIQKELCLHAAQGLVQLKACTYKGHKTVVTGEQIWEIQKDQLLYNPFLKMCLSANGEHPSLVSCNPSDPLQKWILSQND
The conditions noted are these: donor substrate; data from Wandall et al.; cited from earlier work.

Assay [2] addresses T2, GalNAc-T1 (Homo sapiens, UniProt Q10472).
T2 construct: Control constructs pAcGP67-GalNAc-T1-sol, pAcGP67-GalNAc-T2-sol, pAcGP67-GalNAc-T3-sol, and pAcGP67-O^2-sol were prepared as previously described; made in house; host or cells: insect cells (baculovirus, pAcGP67)
T2 sequence (Q10472 41-559 limits assumed): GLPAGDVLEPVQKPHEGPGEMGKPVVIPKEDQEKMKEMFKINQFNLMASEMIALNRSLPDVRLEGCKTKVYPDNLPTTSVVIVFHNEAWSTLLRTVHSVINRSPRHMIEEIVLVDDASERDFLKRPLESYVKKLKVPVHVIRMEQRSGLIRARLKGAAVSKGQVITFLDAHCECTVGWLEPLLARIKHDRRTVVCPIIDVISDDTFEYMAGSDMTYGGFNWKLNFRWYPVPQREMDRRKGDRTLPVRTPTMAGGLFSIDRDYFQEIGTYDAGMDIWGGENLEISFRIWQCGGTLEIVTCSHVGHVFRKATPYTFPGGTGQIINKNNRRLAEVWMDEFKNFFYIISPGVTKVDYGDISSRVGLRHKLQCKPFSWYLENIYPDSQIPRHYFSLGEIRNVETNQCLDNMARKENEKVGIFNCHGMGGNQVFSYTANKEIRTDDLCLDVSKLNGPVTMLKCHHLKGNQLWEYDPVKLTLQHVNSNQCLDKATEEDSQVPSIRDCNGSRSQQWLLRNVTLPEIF
The following applies: donor substrate; data from Wandall et al.; cited from earlier work.

Assay [3] concerns the target T3, GalNAc-T2 (Homo sapiens, UniProt Q10471).
T3 construct: Control constructs pAcGP67-GalNAc-T1-sol, pAcGP67-GalNAc-T2-sol, pAcGP67-GalNAc-T3-sol, and pAcGP67-O^2-sol were prepared as previously described; made in house; host or cells: insect cells (baculovirus, pAcGP67)
The conditions noted are these: donor substrate; data from Wandall et al.; cited from earlier work.

Assay [4] deals with T4, GalNAc-T4 (Homo sapiens, UniProt Q8N4A0).
T4 construct: made in house; host or cells: High Five insect cells (baculovirus, pAcGP67 vector)
In words: GalNAc-transferase assay with purified recombinant GalNAc-T4. It counts as biochemical. The following applies: for GalNAc-T4 activity with substrate (in words): purified GalNAc-T4. On the procedure: (§1) In the examples, GalNAc-transferase assays were performed in 50 μl total reaction mixtures containing 25 mM cacodylate (pH 7.5), 10 mM MnCl2, 0.1-0.25% Triton X-100, 150-200 μM UDP-[^14C]-GalNAc (4,000 cpm/nmole) (Amersham) and 0.06-1 mM acceptor peptides. Peptides were either synthesized or obtained from Carlbiotech (Copenhagen), or Neosystems (Strasbourg), and quality was ascertained by amino acid analysis and mass spectrometry. Peptides Muc-1a, Muc-1b, and TAP24, were derived from the tandem repeat of human MUC1, Gendler et al., J. Biol. Chem. 265:15286 (1990), and Muc2, Muc5AC, and Muc7 from the tandem repeats of MUC2, MUC5AC, and MUC7, respectively. Gum et al., J. Biol. Chem. 264:6480 (1989); Porchet et al., Biochem. Soc. Trans. 23:800 (1995); Bobek et al., J. Biol. Chem. 268:20563 (1993). GalNAc4TAP24 was produced by in vitro glycosylation using GalNAc-T2 as described in Wandall et al., J. Biol. Chem. 272:23503 (1997). Products were quantified by scintillation counting after chromatography on Dowex-1, octadecyl silica cartridges (Bakerbond), or HPLC (PC3.2/3 or mRPC C2/C18 SC2.1/10 Pharmacia, Smart System). Products produced by in vitro glycosylation were in most cases also confirmed by mass spectrometry.
In this example, GalNAc-T4 was expressed in Sf9 insect cells. Expression constructs designed to contain amino acid residues 32-578 of the coding sequence of the putative GalNAc-T4 gene shown in SEQ ID NO:1 prepared by genomic PCR of two clones containing GalNAc-T4 (described in Bennett et al. (1998), supra) were cloned into a BamHI site of the expression vector pAcGP67 (Pharmingen), and the expression construct was sequenced. The constructs pAcGP67-GalNAc-T4506Vsol and pAcGP67-GalNAc-T4506 I sol, were designed to yield a putative soluble form of the GalNAc-T4 protein with an N-terminal end positioned immediately C-terminal to a potential transmembrane domain and including the entire sequence expected to contain the catalytic domain. […] Res. Comm. 211:347 (1995).
The activities presented in Table I were obtained with purified GalNAc-T4 and -T2, and are expressed as mU/mg (the concentration of enzyme protein estimated by SDS-PAGE using BSA as standard).

The target of assay [5] is T3, GalNAc-T2. The experiment in a line: GalNAc-transferase assay with purified recombinant GalNAc-T2. The format is biochemical. On the procedure: as §1, with “The following examples are provided to illustrate certain preferred embodiments of the invention, and should be considered as illustration and not as limitation. In” for “In”
(§2) In this example, GalNAc-T4 was expressed in Sf9 insect cells. Expression constructs designed to contain amino acid residues 32-578 of the coding sequence of the putative GalNAc-T4 gene shown in SEQ ID NO:1 prepared by genomic PCR of two clones containing GalNAc-T4 (described in Bennett et al. (1998), supra) were cloned into a BamHI site of the expression vector pAcGP67 (Pharmingen), and the expression construct was sequenced. The constructs pAcGP67-GalNAc-T4506Vsol and pAcGP67-GalNAc-T4506 I sol, were designed to yield a putative soluble form of the GalNAc-T4 protein with an N-terminal end positioned immediately C-terminal to a potential transmembrane domain and including the entire sequence expected to contain the catalytic domain. Control constructs pAcGP67-GalNAc-T1-sol, pAcGP67-GalNAc-T2-sol, pAcGP67-GalNAc-T3-sol, and pAcGP67-O^2-sol were prepared as previously described in White et al., J. Biol. Chem 270:24156 (1995); Bennett et al., J. Biol. Chem. 271:17006 (1996); and Bennett et al., Biochem. Biophys. Res. Comm. 211:347 (1995).
Activities measured with the mucin derived substrates, Muc7, EA2, and Muc2 (see Table I for structures and SEQ ID NOs:19, 25 and 18, respectively), were only 2-7 fold over background values. Very low activities with a few other substrates were also observed, but for many of the “mucin-like” substrates a relative high background with Sf9 cells infected with irrelevant constructs made assessment difficult. GalNAc-T4 was expressed in High Five cells and purified to near homogeneity, however, very low endogenous activity was detected with some substrates in the same fractions when medium from cells infected with irrelevant expression constructs were used in the same purification strategy. The activities presented in Table I were obtained with purified GalNAc-T4 and -T2, and are expressed as mU/mg (the concentration of enzyme protein estimated by SDS-PAGE using BSA as standard). The highest activities with GalNAc-T4 were found from assays of Sf9 medium with the mucin peptides Muc7, EA2, and Muc2, however, the efficiencies with these substrates were considerably lower than GalNAc-T2.

Assay [6] deals with T1, GalNAc-T3. In words: GalNAc-transferase assay with purified recombinant GalNAc-T3. The format is biochemical. On the procedure: as §1, with “The following examples are provided to illustrate certain preferred embodiments of the invention, and should be considered as illustration and not as limitation. In” for “In”
as §2

Assay [7] concerns the target T2, GalNAc-T1. In words: GalNAc-transferase assay with purified recombinant GalNAc-T1. The format is biochemical. The following applies: acceptor substrate. As to the method:
as §1, with “The following examples are provided to illustrate certain preferred embodiments of the invention, and should be considered as illustration and not as limitation. In” for “In”
In this example, GalNAc-T4 was expressed in Sf9 insect cells. Expression constructs designed to contain amino acid residues 32-578 of the coding sequence of the putative GalNAc-T4 gene shown in SEQ ID NO:1 prepared by genomic PCR of two clones containing GalNAc-T4 (described in Bennett et al. (1998), supra) were cloned into a BamHI site of the expression vector pAcGP67 (Pharmingen), and the expression construct was sequenced. […]

Regarding `CC(=O)N[C@H]1[C@@H](OP(=O)(O)OP(=O)(O)OC[C@H]2O[C@@H](n3ccc(=O)[nH]c3=O)[C@H](O)[C@@H]2O)O[C@H](CO)[C@H](O)[C@@H]1O` [UDP-GalNAc, UDP-N-acetylgalactosamine], the Michaelis constant (Km) is 29 µM in assay [1]; 62 µM in assay [2]; 10 µM in assay [3]; 160 µM in assay [4] (donor substrate, saturating concentration of Muc7 as substrate, read-out: Km GalNAc-T4); 160 µM in assay [4] (using the Muc7 acceptor substrate, read-out: Km of purified GalNAc-T4 for UDP-GalNAc).
Turning to `CC(=O)N[C@H]1[C@@H](OP(=O)(O)OP(=O)(O)OC[C@H]2O[C@@H](n3ccc(=O)[nH]c3=O)[C@H](O)[C@@H]2O)O[C@H](CO)[C@@H](O)[C@@H]1O` [UDP-GlcNAc], the “incorporation with alternative donor substrate” value in assay [4] (Muc7 acceptor peptide) is reported as “No incorporation”.
In the case of “AHGVTSAPDTR [Muc1a′, peptide derived from the tandem repeat of human MUC1]”, the “GalNAc-T2 activity with acceptor peptide” value in assay [5] (0.25 mM peptide in 50-μl assay) turned out to be 28 ± 5 milliunits/mg; in assay [5] (1 mM peptide in 50-μl assay), 83 ± 2 milliunits/mg. The “specific activity of GalNAc-T3” value in assay [6] (with Muc1a) came out at 0.5 U/mg. Further, the results for the “GalNAc-T4 activity with acceptor peptide” value in assay [4] (0.25 mM peptide in 50-μl assay) and in assay [4] (1 mM peptide in 50-μl assay) were 2 ± 0.4 milliunits/mg and 6.7 ± 1 milliunits/mg, respectively. In assay [4], the “GalNAc-T4 activity with substrate (in words)” value is recorded as “somewhat poor activities”.
With Ac-QATEYEYLDYDFLPETEPPEM [PSGL-1b], the Km in assay [5] (acceptor substrate), in assay [6] (acceptor substrate) and in assay [7] was above 2000 µM throughout.
Turning to PRFQDSSSSKAPPPSLPSPSRLPG [hCG-β], the “GalNAc-T2 activity with acceptor peptide” value in assay [5] (0.06 mM peptide in 50-μl assay) is 22 ± 0.5 milliunits/mg; in assay [5] (0.25 mM peptide in 50-μl assay), 74 ± 2 milliunits/mg.
“PTTTPISTTTMVTPTPTPTC [Muc2, peptide from the tandem repeats of MUC2]”: the “GalNAc-T2 activity with acceptor peptide” value in assay [5] (0.06 mM peptide in 50-μl assay) came out at 169 ± 2 milliunits/mg; in assay [5] (0.25 mM peptide in 50-μl assay) it was 128 ± 5 milliunits/mg. The “GalNAc-T4 activity with acceptor peptide” value is 9 ± 0.5 milliunits/mg in assay [4] (0.06 mM peptide in 50-μl assay) and 29 ± 0.8 milliunits/mg in assay [4] (0.25 mM peptide in 50-μl assay).
Consider QATEYEYLDYDFLPEC [PSGL-1a], for which the “GalNAc-T2 activity with acceptor peptide” value in assay [5] (0.06 mM peptide in 50-μl assay) and in assay [5] (0.25 mM peptide in 50-μl assay) was 0.0 milliunits/mg each time. In addition, in assay [4], the “GalNAc-T4 activity with substrate (in words)” value is reported as “not”.
Consider “RPAPGSTAPPA [Muc1b′, peptide derived from the tandem repeat of human MUC1]”, for which the “GalNAc-T2 activity with acceptor peptide” value in assay [5] (0.25 mM peptide in 50-μl assay) was 198 ± 9 milliunits/mg; in assay [5] (1 mM peptide in 50-μl assay) it was 582 ± 9 milliunits/mg. The “GalNAc-T4 activity with acceptor peptide” value in assay [4] (0.25 mM peptide in 50-μl assay) is given as 0.7 ± 0.5 milliunits/mg; in assay [4] (1 mM peptide in 50-μl assay) it was 0.9 ± 0.8 milliunits/mg. Further, the “GalNAc-T4 activity with substrate (in words)” value in assay [4] is on record as “somewhat poor activities”.
